Results on 5 molecules are retold here after paper PMC9844003.

For test [1], the target named is extracellular domain of CD47 fused to a His(×6)-Avi-tag. The experiment in a line: ELISA. The following applies: chain shown with the change, read off a plot. Background: ELISA stands for enzyme-linked immunosorbent assay.
Test [2] has as its target extracellular domain of CD47 fused to a His(×6)-Avi-tag (human). Description: ELISA; CD47-ECD coated on plates; serially diluted IgGs, detected with anti-human IgG Fc-HRP; pH 6.8 (of a series from pH 6.2 to 7.6).
Test [3] shares this target. Description: ELISA; CD47-ECD coated on plates; serially diluted IgGs, detected with anti-human IgG Fc-HRP; pH 7.6 (of a series from pH 6.2 to 7.6).

Numbering of substitutions follows the chain as printed. In names and notes the source's numbering stands.

Chain of extracellular domain of CD47 fused to a His(×6)-Avi-tag (chain, as listed by the source): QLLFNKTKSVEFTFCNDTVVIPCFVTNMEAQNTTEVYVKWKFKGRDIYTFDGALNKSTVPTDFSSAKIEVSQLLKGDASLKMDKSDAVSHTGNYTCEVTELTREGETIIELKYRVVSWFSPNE

B1: BC31M4 (hIgG1 form) L:H38R; L:H107R (protein)
chain 1: QVQLVQSGAEVKKPGASVKVSCKASGYTFTSYGISWVRQAPGQGLEWMGWISAYNGNTNYAQKLQGRVTMTTDTSTSTAYMELRSLRSDDTAVYYCARGAVYFDYWGQGTLVTVSS
chain 2: EIVLTQSPATLSLSPGERATLSCRASQSLSRNRLAWYQQKPGQPPRLLIHWASTRESGVPDRFSGSGSGTDFTLTISSLQAEDVAVYYCQQRTQNTWTFGQGTKVEIK
As to B1, the EC50 (as a rule, the concentration needed to bring the measured effect to its halfway point) in test [1] (pH 6.8, parent: est. -1.3) was 1.4 log10(nM); in test [1] (pH 7.4, parent: est. -0.1), 1.9 log10(nM).

B2: BC31M4 (hIgG1 form) L:H38R; L:H55R; L:H107R (protein)
chain 1: B1 chain 1
chain 2: B1 chain 2 with H50R
B2 yielded a response in test [1] (pH 6.8, highest antibody concentration, Log[Ab] (nM) about 3.5) of 2 OD450.

B3: BC31M4 (hIgG1 form) L:H55R; L:H107R (protein)
chain 1: B1 chain 1
chain 2: B1 chain 2 with R33H, H50R
As to B3, the EC50 was 0.4 log10(nM) in test [1] (pH 6.8, parent: est. -1.3) and 1.3 log10(nM) in test [1] (pH 7.4, parent: est. -0.1).

B4: BC31M4 (hIgG1 form) (antibody, V domains shown)
VH: B1 chain 1
VL: B1 chain 2 with R33H, R92H
B4: the EC50 in test [2] came out at 0.03 nM; in test [3], 2.12 nM.

B5: BC31M4 (hIgG1 form) L:H38R; L:H55R (protein)
chain 1: B1 chain 1
chain 2: B1 chain 2 with H50R, R92H
Consider B5, for which the EC50 in test [1] (pH 6.8, parent: est. -1.3) is -0.9 log10(nM); in test [1] (pH 7.4, parent: est. -0.1), -0.1 log10(nM).
